{"source": "patent US20260049138A1", "about": "(Chugai, published 2026)", "biological_target": "T1, CD3ε homodimer protein (human, UniProt P07766 23-126, limits assumed)", "T1 construct": "also called CD3 (CD3ε)", "T1 sequence (P07766 23-126 limits assumed)": "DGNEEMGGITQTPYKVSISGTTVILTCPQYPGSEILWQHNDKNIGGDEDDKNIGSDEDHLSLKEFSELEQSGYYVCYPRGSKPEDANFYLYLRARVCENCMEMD", "assay": "SPR Biacore T200, CD3ε homodimer on chip;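 further: Light-chain single-residue variant antibodies injected over amine-coupled CD3ε homodimer on a CM4 chip at 25 °C, bound amount divided by that of the GLS3000-containing antibody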"}
{"binder": "GLS3000 G89H one-arm antibody (antibody, human IgG1, kappa, L234A L235A, N297A, name in Kabat numbering) heavy: QVQLVESGGGVVQPGRSLRLSCAASGFTFSNAWMHWVRQAPGKGLEWVAQIKAKSNNYATYYAESVKGRFTISRDDSKNSLYLQMNSLKTEDTAVYYCRYVHYGAYYGVDAWGQGTTVTVSSASTKGPSVFPLAPSSKSTSGGTAALGCLVKDYFPEPVTVSWNSGALTSGVHTFPAVLQSSGLYSLSSVVTVPSSSLGTQTYICNVNHKPSNTKVDKKVEPKSCDKTHTCPPCPAPEAAGGPSVFLFPPKPKDTLMISRTPEVTCVVVDVSHEDPEVKFNWYVDGVEVHNAKTKPREEQYASTYRVVSVLTVLHQDWLNGKEYKCKVSNKALPAPIEKTISKAKGQPREPQVYTLPPSRCELTKNQVSLSCAVKGFYPSDIAVEWESNGQPENNYKTTPPVLDSDGSFFLVSKLTVDKSRWQQGNVFSCSVMHEALHNHYTQKSLSLSPDYKDDDDK EPKSSDKTHTCPPCPAPELLGGPSVFLFPPKPKDTLMISRTPEVTCVVVDVSHEDPEVKFNWYVDGVEVHNAKTKPREEQYNSTYRVVSVLTVLHQDWLNGKEYKCKVSNKALPAPIEKTISKAKGQPREPQVCTLPPSRDELTKNQVSLWCLVKGFYPSDIAVEWESNGQPENNYKTTPPVLDSDGSFFLYSKLTVDKSRWQQGNVFSCSVMHEALHNRYTQKSLSLSP light: DIVMTQSPLSLPVTPGEPASISCRSSQSLVHSNRNTYLHWYQQKPGQAPRLLIYKVSNRFSGVPDRFSGSGSGTDFTLKISRVEAEDVGVYYCHQGTQVPYTFGQGTKLEIKRTVAAPSVFIFPPSDEQLKSGTASVVCLLNNFYPREAKVQWKVDNALQSGNSQESVTEQDSKDSTYSLSSTLTLSKADYEKHKVYACEVTHQGLSSPVTKSFNRGEC", "values": [{"measurement": "ratio of amount bound vs unaltered GLS3000", "value": 0.7}]}
{"binder": "GLS3000 G89I one-arm antibody (antibody, human IgG1, kappa, L234A L235A, N297A, name in Kabat numbering) heavy: QVQLVESGGGVVQPGRSLRLSCAASGFTFSNAWMHWVRQAPGKGLEWVAQIKAKSNNYATYYAESVKGRFTISRDDSKNSLYLQMNSLKTEDTAVYYCRYVHYGAYYGVDAWGQGTTVTVSSASTKGPSVFPLAPSSKSTSGGTAALGCLVKDYFPEPVTVSWNSGALTSGVHTFPAVLQSSGLYSLSSVVTVPSSSLGTQTYICNVNHKPSNTKVDKKVEPKSCDKTHTCPPCPAPEAAGGPSVFLFPPKPKDTLMISRTPEVTCVVVDVSHEDPEVKFNWYVDGVEVHNAKTKPREEQYASTYRVVSVLTVLHQDWLNGKEYKCKVSNKALPAPIEKTISKAKGQPREPQVYTLPPSRCELTKNQVSLSCAVKGFYPSDIAVEWESNGQPENNYKTTPPVLDSDGSFFLVSKLTVDKSRWQQGNVFSCSVMHEALHNHYTQKSLSLSPDYKDDDDK EPKSSDKTHTCPPCPAPELLGGPSVFLFPPKPKDTLMISRTPEVTCVVVDVSHEDPEVKFNWYVDGVEVHNAKTKPREEQYNSTYRVVSVLTVLHQDWLNGKEYKCKVSNKALPAPIEKTISKAKGQPREPQVCTLPPSRDELTKNQVSLWCLVKGFYPSDIAVEWESNGQPENNYKTTPPVLDSDGSFFLYSKLTVDKSRWQQGNVFSCSVMHEALHNRYTQKSLSLSP light: DIVMTQSPLSLPVTPGEPASISCRSSQSLVHSNRNTYLHWYQQKPGQAPRLLIYKVSNRFSGVPDRFSGSGSGTDFTLKISRVEAEDVGVYYCIQGTQVPYTFGQGTKLEIKRTVAAPSVFIFPPSDEQLKSGTASVVCLLNNFYPREAKVQWKVDNALQSGNSQESVTEQDSKDSTYSLSSTLTLSKADYEKHKVYACEVTHQGLSSPVTKSFNRGEC", "values": [{"measurement": "ratio of amount bound vs unaltered GLS3000", "value": 1.07}]}
{"binder": "GLS3000 G89M one-arm antibody (antibody, human IgG1, kappa, L234A L235A, N297A, name in Kabat numbering) heavy: QVQLVESGGGVVQPGRSLRLSCAASGFTFSNAWMHWVRQAPGKGLEWVAQIKAKSNNYATYYAESVKGRFTISRDDSKNSLYLQMNSLKTEDTAVYYCRYVHYGAYYGVDAWGQGTTVTVSSASTKGPSVFPLAPSSKSTSGGTAALGCLVKDYFPEPVTVSWNSGALTSGVHTFPAVLQSSGLYSLSSVVTVPSSSLGTQTYICNVNHKPSNTKVDKKVEPKSCDKTHTCPPCPAPEAAGGPSVFLFPPKPKDTLMISRTPEVTCVVVDVSHEDPEVKFNWYVDGVEVHNAKTKPREEQYASTYRVVSVLTVLHQDWLNGKEYKCKVSNKALPAPIEKTISKAKGQPREPQVYTLPPSRCELTKNQVSLSCAVKGFYPSDIAVEWESNGQPENNYKTTPPVLDSDGSFFLVSKLTVDKSRWQQGNVFSCSVMHEALHNHYTQKSLSLSPDYKDDDDK EPKSSDKTHTCPPCPAPELLGGPSVFLFPPKPKDTLMISRTPEVTCVVVDVSHEDPEVKFNWYVDGVEVHNAKTKPREEQYNSTYRVVSVLTVLHQDWLNGKEYKCKVSNKALPAPIEKTISKAKGQPREPQVCTLPPSRDELTKNQVSLWCLVKGFYPSDIAVEWESNGQPENNYKTTPPVLDSDGSFFLYSKLTVDKSRWQQGNVFSCSVMHEALHNRYTQKSLSLSP light: DIVMTQSPLSLPVTPGEPASISCRSSQSLVHSNRNTYLHWYQQKPGQAPRLLIYKVSNRFSGVPDRFSGSGSGTDFTLKISRVEAEDVGVYYCMQGTQVPYTFGQGTKLEIKRTVAAPSVFIFPPSDEQLKSGTASVVCLLNNFYPREAKVQWKVDNALQSGNSQESVTEQDSKDSTYSLSSTLTLSKADYEKHKVYACEVTHQGLSSPVTKSFNRGEC", "values": [{"measurement": "ratio of amount bound vs unaltered GLS3000", "value": 0.52}]}
{"binder": "GLS3000 G89N one-arm antibody (antibody, human IgG1, kappa, L234A L235A, N297A, name in Kabat numbering) heavy: QVQLVESGGGVVQPGRSLRLSCAASGFTFSNAWMHWVRQAPGKGLEWVAQIKAKSNNYATYYAESVKGRFTISRDDSKNSLYLQMNSLKTEDTAVYYCRYVHYGAYYGVDAWGQGTTVTVSSASTKGPSVFPLAPSSKSTSGGTAALGCLVKDYFPEPVTVSWNSGALTSGVHTFPAVLQSSGLYSLSSVVTVPSSSLGTQTYICNVNHKPSNTKVDKKVEPKSCDKTHTCPPCPAPEAAGGPSVFLFPPKPKDTLMISRTPEVTCVVVDVSHEDPEVKFNWYVDGVEVHNAKTKPREEQYASTYRVVSVLTVLHQDWLNGKEYKCKVSNKALPAPIEKTISKAKGQPREPQVYTLPPSRCELTKNQVSLSCAVKGFYPSDIAVEWESNGQPENNYKTTPPVLDSDGSFFLVSKLTVDKSRWQQGNVFSCSVMHEALHNHYTQKSLSLSPDYKDDDDK EPKSSDKTHTCPPCPAPELLGGPSVFLFPPKPKDTLMISRTPEVTCVVVDVSHEDPEVKFNWYVDGVEVHNAKTKPREEQYNSTYRVVSVLTVLHQDWLNGKEYKCKVSNKALPAPIEKTISKAKGQPREPQVCTLPPSRDELTKNQVSLWCLVKGFYPSDIAVEWESNGQPENNYKTTPPVLDSDGSFFLYSKLTVDKSRWQQGNVFSCSVMHEALHNRYTQKSLSLSP light: DIVMTQSPLSLPVTPGEPASISCRSSQSLVHSNRNTYLHWYQQKPGQAPRLLIYKVSNRFSGVPDRFSGSGSGTDFTLKISRVEAEDVGVYYCNQGTQVPYTFGQGTKLEIKRTVAAPSVFIFPPSDEQLKSGTASVVCLLNNFYPREAKVQWKVDNALQSGNSQESVTEQDSKDSTYSLSSTLTLSKADYEKHKVYACEVTHQGLSSPVTKSFNRGEC", "values": [{"measurement": "ratio of amount bound vs unaltered GLS3000", "value": 0.8}]}
{"binder": "GLS3000 G89L one-arm antibody (antibody, human IgG1, kappa, L234A L235A, N297A, name in Kabat numbering) heavy: QVQLVESGGGVVQPGRSLRLSCAASGFTFSNAWMHWVRQAPGKGLEWVAQIKAKSNNYATYYAESVKGRFTISRDDSKNSLYLQMNSLKTEDTAVYYCRYVHYGAYYGVDAWGQGTTVTVSSASTKGPSVFPLAPSSKSTSGGTAALGCLVKDYFPEPVTVSWNSGALTSGVHTFPAVLQSSGLYSLSSVVTVPSSSLGTQTYICNVNHKPSNTKVDKKVEPKSCDKTHTCPPCPAPEAAGGPSVFLFPPKPKDTLMISRTPEVTCVVVDVSHEDPEVKFNWYVDGVEVHNAKTKPREEQYASTYRVVSVLTVLHQDWLNGKEYKCKVSNKALPAPIEKTISKAKGQPREPQVYTLPPSRCELTKNQVSLSCAVKGFYPSDIAVEWESNGQPENNYKTTPPVLDSDGSFFLVSKLTVDKSRWQQGNVFSCSVMHEALHNHYTQKSLSLSPDYKDDDDK EPKSSDKTHTCPPCPAPELLGGPSVFLFPPKPKDTLMISRTPEVTCVVVDVSHEDPEVKFNWYVDGVEVHNAKTKPREEQYNSTYRVVSVLTVLHQDWLNGKEYKCKVSNKALPAPIEKTISKAKGQPREPQVCTLPPSRDELTKNQVSLWCLVKGFYPSDIAVEWESNGQPENNYKTTPPVLDSDGSFFLYSKLTVDKSRWQQGNVFSCSVMHEALHNRYTQKSLSLSP light: DIVMTQSPLSLPVTPGEPASISCRSSQSLVHSNRNTYLHWYQQKPGQAPRLLIYKVSNRFSGVPDRFSGSGSGTDFTLKISRVEAEDVGVYYCLQGTQVPYTFGQGTKLEIKRTVAAPSVFIFPPSDEQLKSGTASVVCLLNNFYPREAKVQWKVDNALQSGNSQESVTEQDSKDSTYSLSSTLTLSKADYEKHKVYACEVTHQGLSSPVTKSFNRGEC", "values": [{"measurement": "ratio of amount bound vs unaltered GLS3000", "value": 0.94}]}
{"binder": "GLS3000 G89K one-arm antibody (antibody, human IgG1, kappa, L234A L235A, N297A, name in Kabat numbering) heavy: QVQLVESGGGVVQPGRSLRLSCAASGFTFSNAWMHWVRQAPGKGLEWVAQIKAKSNNYATYYAESVKGRFTISRDDSKNSLYLQMNSLKTEDTAVYYCRYVHYGAYYGVDAWGQGTTVTVSSASTKGPSVFPLAPSSKSTSGGTAALGCLVKDYFPEPVTVSWNSGALTSGVHTFPAVLQSSGLYSLSSVVTVPSSSLGTQTYICNVNHKPSNTKVDKKVEPKSCDKTHTCPPCPAPEAAGGPSVFLFPPKPKDTLMISRTPEVTCVVVDVSHEDPEVKFNWYVDGVEVHNAKTKPREEQYASTYRVVSVLTVLHQDWLNGKEYKCKVSNKALPAPIEKTISKAKGQPREPQVYTLPPSRCELTKNQVSLSCAVKGFYPSDIAVEWESNGQPENNYKTTPPVLDSDGSFFLVSKLTVDKSRWQQGNVFSCSVMHEALHNHYTQKSLSLSPDYKDDDDK EPKSSDKTHTCPPCPAPELLGGPSVFLFPPKPKDTLMISRTPEVTCVVVDVSHEDPEVKFNWYVDGVEVHNAKTKPREEQYNSTYRVVSVLTVLHQDWLNGKEYKCKVSNKALPAPIEKTISKAKGQPREPQVCTLPPSRDELTKNQVSLWCLVKGFYPSDIAVEWESNGQPENNYKTTPPVLDSDGSFFLYSKLTVDKSRWQQGNVFSCSVMHEALHNRYTQKSLSLSP light: DIVMTQSPLSLPVTPGEPASISCRSSQSLVHSNRNTYLHWYQQKPGQAPRLLIYKVSNRFSGVPDRFSGSGSGTDFTLKISRVEAEDVGVYYCKQGTQVPYTFGQGTKLEIKRTVAAPSVFIFPPSDEQLKSGTASVVCLLNNFYPREAKVQWKVDNALQSGNSQESVTEQDSKDSTYSLSSTLTLSKADYEKHKVYACEVTHQGLSSPVTKSFNRGEC", "values": [{"measurement": "ratio of amount bound vs unaltered GLS3000", "value": 0.4}]}
